# Reference: the Human Domainome abundance scans (Beltran et al. 2025)
# ± gives the uncertainty stated by the source.
# B1: Cytoplasmic polyadenylation element-binding protein 2, residues 513 to 575; numbered along this chain, Q7Z5Q1 (parent)
# chain: KRVEVKPYVLDDQMCDECQGARCGGKFAPFFCANVTCLQYYCEFCWANIHSRAGREFHKPLVK
# B2: POU domain, class 3, transcription factor 1, residues 247 to 324; numbered along this chain, Q03052 (parent)
# chain: EDAPSSDDLEQFAKQFKQRRIKLGFTQADVGLALGTLYGNVFSQTTICRFEALQLSFKNMCKLKPLLNKWLEETDSSS
# Variants of: B1
# Experiment: abundance fitness (aPCA) (normalised: wild type 0, dead -1); higher = more abundant; growth selection in yeast, the domain comes from the species named
# Details: Homo sapiens
row,Variant,abundance fitness
1,Y8P,0.075 ± 0.047
2,Y8T,-0.026 ± 0.059
3,T36W,-0.328 ± 0.055
4,T36H,-0.061 ± 0.05
5,T36F,-0.312 ± 0.11
6,T36Y,-0.153 ± 0.069
7,S51R,0.116 ± 0.035
8,S51Q,0.102 ± 0.06
9,S51G,0.051 ± 0.037
10,S51N,0.091 ± 0.079
11,S51T,0.006 ± 0.063
12,C45H,-0.733 ± 0.1
13,C45K,-1.11 ± 0.15
14,C45M,-1.24 ± 0.14
15,C45A,-0.77 ± 0.078
16,D12H,0.049 ± 0.056
17,D12R,-0.182 ± 0.045
18,D12P,-0.107 ± 0.055
19,D12C,-0.305 ± 0.18
20,L38W,0.022 ± 0.046
21,L38G,-0.006 ± 0.039
22,L38M,0.123 ± 0.064
23,L38H,0.029 ± 0.098

row,Variant,abundance fitness
1,C42H,-0.818 ± 0.068
2,C42G,-0.58 ± 0.08
3,C42P,-0.826 ± 0.08
4,C42L,-1.03 ± 0.075
5,C42V,-0.849 ± 0.11
6,C42E,-0.951 ± 0.4
7,C42T,-1.11 ± 0.093
8,C42W,-1.29 ± 0.44
9,W46L,-0.335 ± 0.052
10,W46C,-0.401 ± 0.084
11,W46F,0.027 ± 0.052
12,W46Q,-0.624 ± 0.14
13,W46V,-0.573 ± 0.062
14,W46D,-0.684 ± 0.091
15,W46E,-0.658 ± 0.17
16,R2Q,-0.028 ± 0.071
17,R2K,0.101 ± 0.058
18,R2M,-0.012 ± 0.051
19,R2C,-0.229 ± 0.092
20,R2L,-0.363 ± 0.053
21,R2T,-0.115 ± 0.049
22,Q13H,-0.087 ± 0.084
23,Q13T,-0.087 ± 0.045

row,Variant,abundance fitness
1,Q13F,-0.229 ± 0.073
2,Q13G,-0.378 ± 0.05
3,Q13I,-0.197 ± 0.096
4,K1I,-0.215 ± 0.21
5,K1M,-0.184 ± 0.084
6,K1G,-0.218 ± 0.053
7,K1L,-0.417 ± 0.074
8,K1E,0.038 ± 0.063
9,K1Y,-0.236 ± 0.088
10,K1N,0.143 ± 0.078
11,K1T,-0.036 ± 0.078
12,K1Q,-0.248 ± 0.09
13,K1R,-0.216 ± 0.052
14,K1D,-0.01 ± 0.066
15,K1A,-0.32 ± 0.11
16,L61Q,0.116 ± 0.057
17,L61T,0.076 ± 0.052
18,L61Y,-0.197 ± 0.081
19,L61F,-0.11 ± 0.079
20,L61N,0.033 ± 0.077
21,L61V,0.091 ± 0.041
22,L61W,-0.137 ± 0.045
23,N34L,-1.24 ± 0.093

row,Variant,abundance fitness
1,N34M,-0.44 ± 0.05
2,N34G,-0.106 ± 0.05
3,N34D,-0.07 ± 0.089
4,N34C,-0.354 ± 0.082
5,N34T,-0.175 ± 0.048
6,N34A,-0.028 ± 0.05
7,N34H,-0.438 ± 0.13
8,L10V,-0.106 ± 0.038
9,L10K,0.1 ± 0.062
10,L10Q,0.121 ± 0.051
11,L10N,0.005 ± 0.13
12,L10H,-0.227 ± 0.18
13,C32L,-0.882 ± 0.059
14,C32P,-0.737 ± 0.089
15,C32E,-0.683 ± 0.056
16,C32K,-0.617 ± 0.072
17,E4S,-0.185 ± 0.048
18,E4K,-0.239 ± 0.063
19,E4A,-0.15 ± 0.039
20,E4Y,-0.275 ± 0.1
21,E4I,-0.289 ± 0.097
22,V9L,-0.043 ± 0.04
23,V9P,-0.055 ± 0.052

row,Variant,abundance fitness
1,V9M,0.049 ± 0.034
2,V9D,0.083 ± 0.064
3,V9Y,-0.212 ± 0.07
4,Y40R,-0.132 ± 0.048
5,Y40V,-0.399 ± 0.047
6,Y40E,-0.702 ± 0.063
7,Y40I,-0.512 ± 0.096
8,Y40C,-0.411 ± 0.1
9,V35Q,0.021 ± 0.053
10,V35M,-0.334 ± 0.09
11,V35K,0.002 ± 0.07
12,V35G,0.058 ± 0.041
13,C15I,-0.626 ± 0.14
14,C15F,-0.588 ± 0.073
15,C15L,-0.531 ± 0.053
16,C15H,-0.418 ± 0.13
17,C15Q,-0.55 ± 0.12
18,K6M,-0.028 ± 0.049
19,K6A,-0.045 ± 0.038
20,K6D,0.029 ± 0.065
21,K6S,-0.085 ± 0.039
22,K6V,-0.104 ± 0.034
23,K6Y,-0.382 ± 0.1

row,Variant,abundance fitness
1,K6W,-0.315 ± 0.042
2,R52S,0.085 ± 0.05
3,R52Q,0.119 ± 0.058
4,R52N,0.004 ± 0.08
5,R52G,0.02 ± 0.034
6,F31Q,-0.425 ± 0.072
7,F31R,-0.324 ± 0.039
8,F31H,-0.626 ± 0.16
9,F31V,-0.622 ± 0.084
10,F31G,-0.685 ± 0.06
11,F31D,-0.962 ± 0.23
12,F31T,-0.57 ± 0.075
13,R55S,-0.041 ± 0.037
14,R55P,-0.463 ± 0.066
15,R55V,-0.1 ± 0.046
16,R55C,-0.194 ± 0.09
17,R55H,-0.131 ± 0.087
18,R55D,-0.08 ± 0.06
19,R55Q,-0.058 ± 0.073
20,Y41P,-0.734 ± 0.082
21,Y41K,-0.625 ± 0.1
22,Y41N,-0.898 ± 0.3
23,Y41G,-0.878 ± 0.072

row,Variant,abundance fitness
1,Y41T,-0.329 ± 0.088
2,Y41A,-0.676 ± 0.072
3,Y41R,-0.804 ± 0.067
4,Y41Q,-0.433 ± 0.073
5,Y41C,-0.365 ± 0.09
6,K59F,-0.541 ± 0.089
7,K59N,-0.248 ± 0.075
8,K59S,0.021 ± 0.04
9,H50G,-0.637 ± 0.05
10,H50E,-0.546 ± 0.066
11,H50T,-0.742 ± 0.093
12,H50R,-0.775 ± 0.064
13,H50Y,-0.806 ± 0.13
14,A47M,0.019 ± 0.053
15,A47N,0.127 ± 0.11
16,A47Q,-0.01 ± 0.085
17,A47V,-0.192 ± 0.058
18,A47D,0.102 ± 0.06
19,I49R,-0.006 ± 0.058
20,I49D,-0.186 ± 0.07
21,I49S,-0.015 ± 0.036
22,I49T,-0.139 ± 0.047

# Variants of: B2
# Experiment: as above
# Details: Homo sapiens
row,Variant,abundance fitness
1,S78W,-0.189 ± 0.14
2,S78V,0.021 ± 0.079
3,S78T,0.087 ± 0.11
4,S78Y,-0.008 ± 0.19
5,S78Q,-0.158 ± 0.17
6,S78P,-0.019 ± 0.1
7,S78R,-0.032 ± 0.082
